The text below walks through data of IntAct's records for PubMed 17446860.

The labels stand for the following.
B1: Ubiquitin carboxyl-terminal hydrolase 4 (Saccharomyces cerevisiae), P32571 (parent)
chain: MEQNIISTIRDECIRHRSKYLTIAQLTAIAEAKINEFIITGKAKDQDLSSLLDKCIDILSIYKKNSKDIKNIISCKNKGAMISSNSVMIIQLNYVYYKVIHIIVTTNIPHLSEFAKIKLHKSTSDEGNGNNNNNEFQLMNIYNTLLETLLKDENIAKIKSFIKSSIKQTKLNHEQEECNLMRTGSYITSNQLNSLISSSANSASSQMEILLIDIRSRLEFNKSHIDTKNIICLEPISFKMSYSDHDLEKKSLITSPNSEIKMFQSRNLFKFIILYTDANEYNVKQQSVLLDILVNHSFEKPISDDFTKIFILESGFPGWLKSNYGRQVSSSFPSNNNIKDDSVYINGNTSGLSLQHLPKMSPSIRHSMDDSMKEMLVAPTPLNHLQQQQQQQSDNDHVLKRSSSFKKLFSNYTSPNPKNSNSNLYSISSLSISSSPSPLPLHSPDPVKGNSLPINYPETPHLWKNSETDFMTNQREQLNHNSFAHIAPINTKAITSPSRTATPKLQRFPQTISMNLNMNSNGHSSATSTIQPSCLSLSNNDSLDHTDVTPTSSHNYDLDFAVGLENLGNSCYMNCIIQCILGTHELTQIFLDDSYAKHININSKLGSKGILAKYFARLVHMMYKEQVDGSKKISISPIKFKLACGSVNSLFKTASQQDCQEFCQFLLDGLHEDLNQCGSNPPLKELSQEAEARREKLSLRIASSIEWERFLTTDFSVIVDLFQGQYASRLKCKVCSHTSTTYQPFTVLSIPIPKKNSRNNITIEDCFREFTKCENLEVDEQWLCPHCEKRQPSTKQLTITRLPRNLIVHLKRFDNLLNKNNDFVIYPFLLDLTPFWANDFDGVFPPGVNDDELPIRGQIPPFKYELYGVACHFGTLYGGHYTAYVKKGLKKGWLYFDDTKYKPVKNKADAINSNAYVLFYHRVYGV
partner: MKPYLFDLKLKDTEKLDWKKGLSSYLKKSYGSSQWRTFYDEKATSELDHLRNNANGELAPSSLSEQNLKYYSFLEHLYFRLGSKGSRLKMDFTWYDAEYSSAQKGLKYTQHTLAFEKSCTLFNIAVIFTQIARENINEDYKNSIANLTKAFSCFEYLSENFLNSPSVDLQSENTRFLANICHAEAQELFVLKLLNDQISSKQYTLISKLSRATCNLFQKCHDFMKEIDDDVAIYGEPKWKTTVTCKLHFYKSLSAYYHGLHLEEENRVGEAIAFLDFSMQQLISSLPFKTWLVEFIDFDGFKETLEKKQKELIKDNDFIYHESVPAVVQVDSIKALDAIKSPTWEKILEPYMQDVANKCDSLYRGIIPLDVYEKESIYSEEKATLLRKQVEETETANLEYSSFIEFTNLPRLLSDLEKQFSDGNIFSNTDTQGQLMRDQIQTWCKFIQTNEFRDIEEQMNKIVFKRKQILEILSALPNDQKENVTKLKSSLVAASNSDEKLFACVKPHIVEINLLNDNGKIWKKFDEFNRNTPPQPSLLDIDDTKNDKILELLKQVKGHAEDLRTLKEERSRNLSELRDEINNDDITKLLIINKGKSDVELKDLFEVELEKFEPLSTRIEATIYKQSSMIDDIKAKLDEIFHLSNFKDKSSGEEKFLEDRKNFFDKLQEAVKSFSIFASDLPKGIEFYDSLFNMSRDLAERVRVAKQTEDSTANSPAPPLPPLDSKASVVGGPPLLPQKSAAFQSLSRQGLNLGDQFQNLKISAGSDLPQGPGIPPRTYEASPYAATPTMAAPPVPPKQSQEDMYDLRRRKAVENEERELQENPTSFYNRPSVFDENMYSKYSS
B2: Vacuolar-sorting protein BRO1 (Saccharomyces cerevisiae), P48582 (parent)
chain: B1 partner
partner: B1 chain

In the first test the parent is B1. To be noted: with bro1_yeast BRO1, P48582.
Regarding Y826A, the “effect of a mutation on the interaction” value is given as “disrupting interaction”.

The variants in another test derive from B1. The note with it: with bro1_yeast BRO1, P48582. This is another data set of the same source.
For I825A, the “effect of a mutation on the interaction” value was “decreasing interaction”.

Another test covers variants of B1. The note with it: with bro1_yeast BRO1, P48582. This is another data set of the same source.
In the case of P827A, the “effect of a mutation on the interaction” value is reported as “disrupting interaction”.

The variants in the next test derive from B1. To be noted: with bro1_yeast BRO1, P48582. This is another data set of the same source.
Consider V824A, for which the “effect of a mutation on the interaction” value is “disrupting interaction”.

In the next test the parent is B1. The note with it: with bro1_yeast BRO1, P48582. The source holds these as a separate data set.
For the variant L829A, the “effect of a mutation on the interaction” value is given as “disrupting interaction”.

Another test covers variants of B1. To be noted: with bro1_yeast BRO1, P48582. This is another data set of the same source.
Regarding L830A, the “effect of a mutation on the interaction” value is given as “disrupting interaction”.

The next test covers variants of B2. To be noted: with ubp4_yeast DOA4, P32571.
Turning to F834A, the “effect of a mutation on the interaction” value was “disrupting interaction”.

The next test covers variants of B2. To be noted: with ubp4_yeast DOA4, P32571. The source holds these as a separate data set.
With S832A, the “effect of a mutation on the interaction” value was “disrupting interaction”.

The variants in another test derive from B2. The note with it: with ubp4_yeast DOA4, P32571. The source holds these as a separate data set.
Turning to V833A, the “effect of a mutation on the interaction” value is reported as “disrupting interaction”.

Variants of B2 are the subject of another test. To be noted: with ubp4_yeast DOA4, P32571. This is another data set of the same source.
As to P831A, the “effect of a mutation on the interaction” value is listed as “disrupting interaction”.
